From patent US20240132578A1

How the values were obtained:
[1] = molecular target: HIV-1 Env of isolate 93IN905 (HIV-1); experiment: cell-based or functional assay
[2] = molecular target: HIV-1 Env of isolate 93MW959 (HIV-1); experiment: cell-based or functional assay
[3] = molecular target: HIV-1 Env of isolate 97ZA012 (HIV-1); experiment: cell-based or functional assay
[4] = molecular target: HIV-1 Env of isolate 98IN022 (HIV-1); experiment: cell-based or functional assay
[5] = molecular target: HIV-1 Env of isolate JRCSF (HIV-1) (UniProt P20871); experiment: cell-based or functional assay
[6] = molecular target: HIV-1 Env of isolate MGRM-Chronic-B-010 (HIV-1); experiment: cell-based or functional assay
[7] = molecular target: HIV-1 Env of isolate MGRM-Chronic-B-011 (HIV-1); experiment: cell-based or functional assay
[8] = molecular target: HIV-1 Env of isolate MGRM-Chronic-B-012 (HIV-1); experiment: cell-based or functional assay
[9] = molecular target: HIV-1 Env of isolate MGRM-Chronic-B-017 (HIV-1); experiment: cell-based or functional assay
[10] = molecular target: HIV-1 Env of isolate MGRM-Chronic-B-018 (HIV-1); experiment: cell-based or functional assay
[11] = molecular target: HIV-1 Env of isolate MGRM-Chronic-B-020 (HIV-1); experiment: cell-based or functional assay
[12] = molecular target: HIV-1 Env of isolate MGRM-Chronic-B-023 (HIV-1); experiment: cell-based or functional assay
[13] = molecular target: HIV-1 Env of isolate MGRM-Chronic-B-024 (HIV-1); experiment: cell-based or functional assay
[14] = molecular target: HIV-1 Env of isolate NL43 (HIV-1); experiment: cell-based or functional assay
[15] = molecular target: HIV-1 Env of isolate PVO.4 (HIV-1); experiment: cell-based or functional assay
[16] = molecular target: HIV-1 Env of isolate QH0692.42 (HIV-1); experiment: cell-based or functional assay
[17] = molecular target: HIV-1 Env of isolate SC422661.8 (HIV-1); experiment: cell-based or functional assay
[18] = molecular target: HIV-1 Env of isolate SF162 (HIV-1) (UniProt P19550); experiment: cell-based or functional assay
[19] = molecular target: HIV-1 Env of isolate THR0.18 (HIV-1); experiment: cell-based or functional assay
[20] = molecular target: HIV-1 Env of isolate TRJ04551.58 (HIV-1); experiment: cell-based or functional assay
[21] = molecular target: HIV-1 Env of isolate TRO.11 (HIV-1); experiment: cell-based or functional assay
[22] = molecular target: HIV-1 Env of isolate VLGCB3 (HIV-1); experiment: cell-based or functional assay
[23] = molecular target: HIV-1 Env of pseudovirus MGRM-F1-004 (HIV-1); experiment: cell-based or functional assay
[24] = molecular target: HIV-1 92RW020 Env (HIV-1); experiment: cell-based or functional assay
[25] = molecular target: HIV-1 Env of isolate 92UG031 (pseudovirus) (HIV-1); experiment: cell-based or functional assay
[26] = molecular target: HIV-1 Env of isolate 92UG037 (pseudovirus) (HIV-1); experiment: cell-based or functional assay
[27] = molecular target: HIV-1 Env of isolate 92WR020 (pseudovirus) (HIV-1); experiment: cell-based or functional assay
[28] = molecular target: HIV-1 Env of isolate 92WR021 (pseudovirus) (HIV-1); experiment: cell-based or functional assay
[29] = molecular target: HIV-1 Env of isolate 92WR024 (pseudovirus) (HIV-1); experiment: cell-based or functional assay
[30] = molecular target: HIV-1 Env of isolate 93UG077 (pseudovirus) (HIV-1); experiment: cell-based or functional assay
[31] = molecular target: HIV-1 Env of isolate 93WR029 (pseudovirus) (HIV-1); experiment: cell-based or functional assay
[32] = molecular target: HIV-1 Env of isolate 94UG103 (pseudovirus) (HIV-1); experiment: cell-based or functional assay
[33] = molecular target: HIV-1 Env of isolate MGRM-D-005 (pseudovirus) (HIV-1); experiment: cell-based or functional assay
[34] = molecular target: HIV-1 Env of isolate MGRM-F1-018 (HIV-1); experiment: cell-based or functional assay
[35] = molecular target: HIV-1 MGRM-A-010 Env (HIV-1); experiment: cell-based or functional assay
[36] = molecular target: WT JR-FL gp120 (HIV-1 JR-FL); experiment: ELISA, antigen-coated wells, mAb titrated; EC50 by nonlinear regression

Chain of PGT-144 (4970_K22) (antibody) (VH): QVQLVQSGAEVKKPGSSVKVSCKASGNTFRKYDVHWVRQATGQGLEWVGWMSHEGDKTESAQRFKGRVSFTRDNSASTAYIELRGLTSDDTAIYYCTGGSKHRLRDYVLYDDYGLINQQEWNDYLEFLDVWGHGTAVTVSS
Chain of PGT-144 (4970_K22) (antibody) (VL): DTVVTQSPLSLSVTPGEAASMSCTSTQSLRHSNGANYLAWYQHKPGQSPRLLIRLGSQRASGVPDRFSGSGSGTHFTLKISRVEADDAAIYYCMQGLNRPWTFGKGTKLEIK
Chain of PGT-143 (4980_N08) (antibody) (VH): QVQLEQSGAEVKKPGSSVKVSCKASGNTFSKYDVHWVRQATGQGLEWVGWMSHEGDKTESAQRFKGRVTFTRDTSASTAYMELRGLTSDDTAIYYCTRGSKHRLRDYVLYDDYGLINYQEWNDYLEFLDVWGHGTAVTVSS
Chain of PGT-143 (4980_N08) (antibody) (VL): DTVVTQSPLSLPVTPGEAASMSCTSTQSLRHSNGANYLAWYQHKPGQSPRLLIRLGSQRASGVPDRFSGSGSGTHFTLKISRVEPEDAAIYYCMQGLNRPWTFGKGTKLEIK

With PGT-143 (4980_N08) (antibody) the IC50, pseudovirus neutralization [1] was 0.002 µg/mL, the IC50, pseudovirus neutralization [2] was 0.002 µg/mL and the IC50, pseudovirus neutralization [3] was > 50 µg/mL. For the same substance, the IC50, pseudovirus neutralization [4] was 0.001 µg/mL, the IC50, pseudovirus neutralization [5] was 0.007 µg/mL and the IC50, pseudovirus neutralization [6] was > 50 µg/mL. The IC50, pseudovirus neutralization [7] was 1.56 µg/mL, the IC50, pseudovirus neutralization [8] was > 50 µg/mL and the IC50, pseudovirus neutralization [9] was 0.145 µg/mL. The IC50, pseudovirus neutralization [10] was 0.377 µg/mL, the IC50, pseudovirus neutralization [11] was > 50 µg/mL and the IC50, pseudovirus neutralization [12] was 0.236 µg/mL. The IC50, pseudovirus neutralization [13] was 0.01 µg/mL, the IC50, pseudovirus neutralization [14] was > 50 µg/mL and the IC50, pseudovirus neutralization [15] was 0.162 µg/mL. For the same substance, the IC50, pseudovirus neutralization [16] was > 50 µg/mL, the IC50, pseudovirus neutralization [17] was 2.02 µg/mL and the IC50, pseudovirus neutralization [18] was > 50 µg/mL. The IC50, pseudovirus neutralization [19] was 0.016 µg/mL, the IC50, pseudovirus neutralization [20] was > 50 µg/mL and the IC50, pseudovirus neutralization [21] was 0.219 µg/mL. The IC50, pseudovirus neutralization [22] was > 50 µg/mL and the IC50, pseudovirus neutralization [23] was 0.036 µg/mL.
For 5147_N06 (PGT-130) (antibody), the IC50, pseudovirus neutralization [24] was 0.014 µg/mL, the IC50 (µg/mL), pseudovirus neutralization [25] was > 50 µg/mL and the IC50 (µg/mL), pseudovirus neutralization [26] was 0.061 µg/mL. For the same substance, the IC50 (µg/mL), pseudovirus neutralization [27] was 0.039 µg/mL, the IC50 (µg/mL), pseudovirus neutralization [28] was 0.004 µg/mL and the IC50 (µg/mL), pseudovirus neutralization [29] was > 50 µg/mL. The IC50 (µg/mL), pseudovirus neutralization [1] was 0.02 µg/mL, the IC50 (µg/mL), pseudovirus neutralization [2] was 8.55 µg/mL and the IC50 (µg/mL), pseudovirus neutralization [30] was 21.4 µg/mL. It also gave an IC50 (µg/mL), pseudovirus neutralization [31] of 34.3 µg/mL, an IC50 (µg/mL), pseudovirus neutralization [32] of 1.4 µg/mL and an IC50 (µg/mL), pseudovirus neutralization [3] of 1.32 µg/mL. For the same substance, the IC50 (µg/mL), pseudovirus neutralization [4] was > 50 µg/mL, the IC50 (µg/mL), pseudovirus neutralization [5] was 0.01 µg/mL and the IC50 (µg/mL), pseudovirus neutralization [6] was 0.006 µg/mL. The IC50 (µg/mL), pseudovirus neutralization [7] was 0.153 µg/mL, the IC50 (µg/mL), pseudovirus neutralization [8] was 0.373 µg/mL and the IC50 (µg/mL), pseudovirus neutralization [9] was > 50 µg/mL. The IC50 (µg/mL), pseudovirus neutralization [10] was 31.9 µg/mL, the IC50 (µg/mL), pseudovirus neutralization [11] was 0.014 µg/mL and the IC50 (µg/mL), pseudovirus neutralization [12] was > 50 µg/mL. For the same substance, the IC50 (µg/mL), pseudovirus neutralization [13] was 5.78 µg/mL, the IC50 (µg/mL), pseudovirus neutralization [33] was > 50 µg/mL and the IC50 (µg/mL), pseudovirus neutralization [34] was > 50 µg/mL. For the same substance, the IC50 (µg/mL), pseudovirus neutralization [14] was > 50 µg/mL, the IC50 (µg/mL), pseudovirus neutralization [15] was 5.17 µg/mL and the IC50 (µg/mL), pseudovirus neutralization [16] was > 50 µg/mL. The IC50 (µg/mL), pseudovirus neutralization [17] was > 50 µg/mL, the IC50 (µg/mL), pseudovirus neutralization [18] was 0.007 µg/mL and the IC50 (µg/mL), pseudovirus neutralization [19] was > 50 µg/mL. The IC50 (µg/mL), pseudovirus neutralization [20] was 0.023 µg/mL, the IC50 (µg/mL), pseudovirus neutralization [21] was 0.257 µg/mL and the IC50 (µg/mL), pseudovirus neutralization [22] was 4.6 µg/mL. For the same substance, the IC50, pseudovirus neutralization [35] was 0.0054 µg/mL and the EC50 [36] was 0.2 µg/mL.
For PGT-144 (4970_K22) (antibody), the IC50, pseudovirus neutralization [1] was 0.132 µg/mL, the IC50, pseudovirus neutralization [2] was 0.332 µg/mL and the IC50, pseudovirus neutralization [3] was > 50 µg/mL. The IC50, pseudovirus neutralization [4] was 0.171 µg/mL, the IC50, pseudovirus neutralization [5] was 0.149 µg/mL and the IC50, pseudovirus neutralization [6] was > 50 µg/mL. For the same substance, the IC50, pseudovirus neutralization [7] was 5.64 µg/mL, the IC50, pseudovirus neutralization [8] was > 50 µg/mL and the IC50, pseudovirus neutralization [9] was 0.712 µg/mL. The IC50, pseudovirus neutralization [10] was 2.4 µg/mL, the IC50, pseudovirus neutralization [11] was > 50 µg/mL and the IC50, pseudovirus neutralization [12] was > 50 µg/mL. For the same substance, the IC50, pseudovirus neutralization [13] was 0.04 µg/mL, the IC50, pseudovirus neutralization [14] was > 50 µg/mL and the IC50, pseudovirus neutralization [15] was 0.535 µg/mL. For the same substance, the IC50, pseudovirus neutralization [16] was > 50 µg/mL, the IC50, pseudovirus neutralization [17] was > 50 µg/mL and the IC50, pseudovirus neutralization [18] was > 50 µg/mL. The IC50, pseudovirus neutralization [19] was 0.029 µg/mL, the IC50, pseudovirus neutralization [20] was > 50 µg/mL and the IC50, pseudovirus neutralization [21] was 4.73 µg/mL. The IC50, pseudovirus neutralization [22] was > 50 µg/mL and the IC50, pseudovirus neutralization [23] was 0.105 µg/mL.
